In patent US20230012273A1 (Boehringer Ingelheim, published 2023):

Assays:
[1] = biological target: T1, full-length cynomolgus SIRPβ1 (XP_005568598) on CHO cells, clone PA2 (cynomolgus monkey); experiment: flow cytometry, CHO cells
T1 construct: whole, on cells; also called SIRPβ1 XP_005568598 Clone PA2
Experimental: (§1) Antibody binding to cells expressing full-length cynomolgus SIRPβ1 (XP_005568598) and SIRPβ1v3 (XP_005568593) is evaluated by flow cytometry. SIRPβ1- or SIRPβ1V3-expressing CHO cells are blocked with donkey IgG and incubated on ice with increasing concentrations of antibodies for 60 minutes, washed and stained with AF647-conjugated donkey F(ab′)₂ anti-human IgG secondary reagent. Cells are washed, fixed, and analyzed by flow cytometry. Median fluorescent intensity is determined and used as a measure of antibody binding.

[2] = biological target: T2, full-length cynomolgus SIRPβ1v3 (XP_005568593) on CHO cells, clone 1HC6 (cynomolgus monkey); experiment: flow cytometry, CHO cells
T2 construct: also called SIRPβ1v3 XP-005568593 Clone 1HC6
Experimental: as §1

[3] = biological target: T3, full-length human SIRPγ N→D on Expi-CHO cells (human, UniProt Q9P1W8 29-387); experiment: flow cytometry, Expi-CHO cells expressing full-length human SIRPγ N→D
T3 construct: the entry already carries the change (PENV to PEDV)
T3 sequence (Q9P1W8 29-387 N129D): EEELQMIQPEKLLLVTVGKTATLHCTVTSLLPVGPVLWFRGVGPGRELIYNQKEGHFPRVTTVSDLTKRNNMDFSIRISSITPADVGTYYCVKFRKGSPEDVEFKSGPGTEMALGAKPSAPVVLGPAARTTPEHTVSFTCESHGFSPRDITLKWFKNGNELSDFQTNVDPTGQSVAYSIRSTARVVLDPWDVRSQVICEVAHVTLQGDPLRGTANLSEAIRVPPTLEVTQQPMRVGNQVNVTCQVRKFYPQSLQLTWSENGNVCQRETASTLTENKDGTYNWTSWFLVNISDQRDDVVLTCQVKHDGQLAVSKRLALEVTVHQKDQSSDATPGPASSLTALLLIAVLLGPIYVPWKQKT
Experimental: Expi-CHO parental cells are transduced with lentiviruses containing either full-length wild-type human SIRPγ ([…]) or full-length human SIRPγ with amino acid point mutations (Table 64) and sorted to achieve matching expression levels. These cells are blocked with donkey IgG and incubated on ice with increasing concentrations of antibodies for 60 minutes, washed and stained with AF647-conjugated donkey F(ab′)₂ anti-human IgG antibodies. Stained cells are washed, fixed, and analyzed by flow cytometry. Median fluorescent intensity is determined and used as a measure of antibody binding.

[4] = biological target: full-length human SIRPβ1 D→H on Expi-CHO cells (human, UniProt O00241 30-398); experiment: flow cytometry, Expi-CHO cells
Chain of full-length human SIRPβ1 D→H on Expi-CHO cells (O00241 30-398 D130H): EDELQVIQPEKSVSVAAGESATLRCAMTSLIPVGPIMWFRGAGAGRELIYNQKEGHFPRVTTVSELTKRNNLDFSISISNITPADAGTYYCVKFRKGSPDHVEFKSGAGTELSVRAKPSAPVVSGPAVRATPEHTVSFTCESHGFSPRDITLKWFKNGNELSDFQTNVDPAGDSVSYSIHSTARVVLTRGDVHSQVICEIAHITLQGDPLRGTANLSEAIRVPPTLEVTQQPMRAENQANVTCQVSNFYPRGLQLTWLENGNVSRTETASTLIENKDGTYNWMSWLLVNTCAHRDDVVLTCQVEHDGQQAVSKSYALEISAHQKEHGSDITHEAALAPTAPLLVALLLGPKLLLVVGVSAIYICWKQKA
Experimental: These cells are blocked with donkey IgG and incubated on ice with increasing concentrations of antibodies for 60 minutes, washed and stained with AF647-conjugated donkey F(ab′)₂ anti-human IgG antibodies. Stained cells are washed, fixed, and analyzed by flow cytometry. Median fluorescent intensity is determined and used as a measure of antibody binding.

[5] = biological target: T4, cynomolgus SIRPα extracellular domain + His-tag (NP_001271679) (cynomolgus monkey); experiment: SPR, Ab captured, ECD-His analyte
T4 construct: also called CySIRPα NP_001271679; cynoSIRPα
T4 chain: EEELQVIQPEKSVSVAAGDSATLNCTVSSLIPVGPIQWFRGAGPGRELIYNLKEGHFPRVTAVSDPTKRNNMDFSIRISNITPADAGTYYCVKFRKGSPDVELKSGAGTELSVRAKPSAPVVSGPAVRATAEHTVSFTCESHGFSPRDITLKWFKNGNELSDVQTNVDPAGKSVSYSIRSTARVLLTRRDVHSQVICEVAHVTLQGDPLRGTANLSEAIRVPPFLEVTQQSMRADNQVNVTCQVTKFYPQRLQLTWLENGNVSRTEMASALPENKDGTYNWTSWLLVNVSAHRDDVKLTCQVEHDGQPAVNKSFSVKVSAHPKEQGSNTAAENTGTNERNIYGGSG
Summary of the method: (§2)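 SPR; Ab capture surface, ethanolamine-deactivated (1M, 420 s, 10 μl/min). Analyte: SIRP ECD+His, 2-fold dilution series in 1×HBS-EP+. Inject 300 s @ 30 μl/min; dissoc. 600 s.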

[6] = biological target: T5, cynomolgus SIRPα extracellular domain + His-tag (EGM_02252) (cynomolgus monkey); experiment: SPR, Ab captured, ECD-His analyte
T5 construct: also called CySIRPα EGM_02252; cynoSIRPα
T5 chain: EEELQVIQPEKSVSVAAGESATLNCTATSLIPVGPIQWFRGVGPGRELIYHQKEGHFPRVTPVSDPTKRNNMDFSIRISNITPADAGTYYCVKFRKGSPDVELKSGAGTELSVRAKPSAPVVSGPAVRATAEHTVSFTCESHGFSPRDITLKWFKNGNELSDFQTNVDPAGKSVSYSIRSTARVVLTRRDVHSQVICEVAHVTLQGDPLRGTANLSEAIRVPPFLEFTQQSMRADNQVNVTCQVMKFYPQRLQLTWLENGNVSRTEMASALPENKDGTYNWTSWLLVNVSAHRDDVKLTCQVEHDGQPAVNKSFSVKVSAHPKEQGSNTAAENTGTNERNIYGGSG
Summary of the method: as §2

[7] = biological target: T6, cynomolgus SIRPγ extracellular domain + His-tag (XP_005568591) (cynomolgus monkey, UniProt Q9P1W8 29-359 (human entry)); experiment: SPR, Ab captured, ECD-His analyte
T6 construct: also called Cyno SIRPγ; cynoSIRPγ
T6 chain: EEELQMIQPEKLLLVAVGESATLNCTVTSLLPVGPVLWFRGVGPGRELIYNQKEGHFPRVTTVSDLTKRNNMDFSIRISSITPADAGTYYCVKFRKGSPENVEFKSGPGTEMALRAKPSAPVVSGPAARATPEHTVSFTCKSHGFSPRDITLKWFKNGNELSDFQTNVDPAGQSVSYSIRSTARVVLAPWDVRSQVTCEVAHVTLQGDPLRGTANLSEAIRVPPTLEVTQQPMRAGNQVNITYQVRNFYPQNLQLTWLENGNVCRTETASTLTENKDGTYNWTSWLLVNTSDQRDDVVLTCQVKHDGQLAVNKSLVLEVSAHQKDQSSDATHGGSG
Summary of the method: as §2

[8] = biological target: T7, human SIRPβ1 extracellular domain + His-tag (NP_006056.2) (human, UniProt O00241 30-371); experiment: SPR, Ab captured, ECD-His analyte
T7 construct: also called hSIRPβ1; HuSIRPβ1
T7 sequence (O00241 other isoform, or with tags, fused parts or gaps): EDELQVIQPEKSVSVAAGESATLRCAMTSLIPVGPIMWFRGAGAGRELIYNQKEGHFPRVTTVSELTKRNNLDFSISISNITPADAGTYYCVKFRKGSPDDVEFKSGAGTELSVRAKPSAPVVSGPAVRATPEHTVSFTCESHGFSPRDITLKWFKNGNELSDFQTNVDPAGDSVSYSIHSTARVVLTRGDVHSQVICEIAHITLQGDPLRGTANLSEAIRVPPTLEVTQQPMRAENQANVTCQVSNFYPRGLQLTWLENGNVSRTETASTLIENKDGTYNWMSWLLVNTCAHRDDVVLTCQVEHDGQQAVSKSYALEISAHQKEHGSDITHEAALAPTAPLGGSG
Summary of the method: as §2

[9] = biological target: T8, human SIRPβL/SIRPβ1v3 extracellular domain + His-tag (NP_001129316.1) (human, UniProt Q5TFQ8 30-371); experiment: SPR, Ab captured, ECD-His analyte
T8 construct: also called hSIRPβ1v3; HuSIRPβ1v3
T8 sequence (Q5TFQ8 other isoform, or with tags, fused parts or gaps): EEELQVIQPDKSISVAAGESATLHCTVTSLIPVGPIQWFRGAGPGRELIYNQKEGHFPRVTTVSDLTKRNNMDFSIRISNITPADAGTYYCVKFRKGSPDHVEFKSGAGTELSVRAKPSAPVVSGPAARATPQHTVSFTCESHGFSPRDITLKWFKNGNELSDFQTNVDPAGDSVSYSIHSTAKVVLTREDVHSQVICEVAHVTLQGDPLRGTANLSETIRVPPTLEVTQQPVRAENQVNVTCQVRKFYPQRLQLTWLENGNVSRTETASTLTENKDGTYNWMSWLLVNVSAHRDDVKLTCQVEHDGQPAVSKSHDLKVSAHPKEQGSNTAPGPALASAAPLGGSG
Summary of the method: as §2

[10] = biological target: T9, human SIRPγ extracellular domain + His-tag (NP_061026.2) (human, UniProt Q9P1W8 29-360); experiment: SPR, Ab captured, ECD-His analyte
T9 construct: also called hSIRPγ; HuSIRPγ
T9 sequence (Q9P1W8 29-360): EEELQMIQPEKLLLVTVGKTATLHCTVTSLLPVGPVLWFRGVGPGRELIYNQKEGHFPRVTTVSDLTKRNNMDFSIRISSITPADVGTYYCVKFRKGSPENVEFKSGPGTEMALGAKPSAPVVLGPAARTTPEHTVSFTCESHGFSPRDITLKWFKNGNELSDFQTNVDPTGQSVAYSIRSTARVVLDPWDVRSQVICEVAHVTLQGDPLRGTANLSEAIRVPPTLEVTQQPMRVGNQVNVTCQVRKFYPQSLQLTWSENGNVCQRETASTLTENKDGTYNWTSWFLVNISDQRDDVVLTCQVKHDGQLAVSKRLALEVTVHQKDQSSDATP
Summary of the method: as §2

B1: Antibody A (antibody, human IgG1, kappa, L234A L235A)
heavy: not shown
light: DIQMTQSPSSLSASVGDRVTITCRASQDINNYLAWFQQKPGKAPKSLIYTASSLHSGVPSKFSGSGSGTDFTLTISSLQPEDFATYYCQQYVSYPYTFGQGTKLEIKRTVAAPSVFIFPPSDEQLKSGTASVVCLLNNFYPREAKVQWKVDNALQSGNSQESVTEQDSKDSTYSLSSTLTLSKADYEKHKVYACEVTHQGLSSPVTKSFNRGEC
EC50 [1]: 0.7 nM

B2: Antibody A10 (antibody, human IgG1, kappa, L234A L235A)
heavy: not shown
light: DIQMTQSPSSLSASVGDRVTITCRASQDINNYLAWFQQKPGKAPKSLIYTASSLHSGVPSKFSGSGSGTDFTLTISSLQPEDFATYYCQQYVSYPYTFGQGTKLEIKRTVAAPSVFIFPPSDEQLKSGTASVVCLLNNFYPREAKVQWKVDNALQSGNSQESVTEQDSKDSTYSLSSTLTLSKADYEKHKVYACEVTHQGLSSPVTKSFNRGEC
EC50 [1]: 0.6 nM

B3: Antibody E (antibody, human IgG1, kappa, L234A L235A)
heavy: not shown
light: DIVMTQSPLSLPVTPGEPASISCKSSQSLLYSNGYNYLDWYLQRPGQSPQLLIYLGSNRASGVPDRFSGSGSGTDFTLKISRVEAEDVGVFYCMQALQTPLTFGGGTKVEIKRTVAAPSVFIFPPSDEQLKSGTASVVCLLNNFYPREAKVQWKVDNALQSGNSQESVTEQDSKDSTYSLSSTLTLSKADYEKHKVYACEVTHQGLSSPVTKSFNRGEC
EC50 [2]: 0.8 nM | binding result [3]: no binding (tested: about 67 nM)

B4: Antibody E22 (antibody, human IgG1, kappa, L234A L235A, V domains shown)
VH: QVQLQESGPGLVKPSETLSLTCTVSGGSIRDYYWSWIRQPPGKGLEWIGFIYYNGRTFYQSSLKSRVTISLDTSKNQFSLKMTSVTAADTAVYYCARVRAYSGIGLDGTDVWGQGTTVTVSS
VL: DIVMTQSPLSLPVTPGEPASISCRSSQSLLYSTGYTYLDWYLQRPGQSPQLLIYGGSSRASGVPDRFSGSGSGTDFTLKISRVEAEDVGVFYCGQALQTPLTFGQGTKVEIKR
EC50 [2]: 1 nM | binding result [3]: no binding (tested: about 67 nM)

B5: Antibody A (antibody, human IgG1, kappa, L234A L235A)
heavy: not shown
light: DIQMTQSPSSLSASVGDRVTITCRASQDINNYLAWFQQKPGKAPKSLIYTASSLHSGVPSKFSGSGSGTDFTLTISSLQPEDFATYYCQQYVSYPYTFGQGTKLEIKRTVAAPSVFIFPPSDEQLKSGTASVVCLLNNFYPREAKVQWKVDNALQSGNSQESVTEQDSKDSTYSLSSTLTLSKADYEKHKVYACEVTHQGLSSPVTKSFNRGEC
binding result [4]: no binding | Kd [5]: 336 nM | Kd [6]: 258 nM | binding result [7]: no binding (tested: 1000 nM) | Kd [8]: 64.8 nM | binding result [9]: no binding (tested: 100 nM) | binding result [10]: no binding (tested: 1000 nM)

B6: Antibody A10 (antibody, human IgG1, kappa, L234A L235A)
heavy: not shown
light: DIQMTQSPSSLSASVGDRVTITCRASQDINNYLAWFQQKPGKAPKSLIYTASSLHSGVPSKFSGSGSGTDFTLTISSLQPEDFATYYCQQYVSYPYTFGQGTKLEIKRTVAAPSVFIFPPSDEQLKSGTASVVCLLNNFYPREAKVQWKVDNALQSGNSQESVTEQDSKDSTYSLSSTLTLSKADYEKHKVYACEVTHQGLSSPVTKSFNRGEC
binding result [4]: no binding | Kd [5]: 378 nM | Kd [6]: 249 nM | binding result [7]: no binding (tested: 1000 nM) | Kd [8]: 69 nM | binding result [9]: no binding (tested: 100 nM) | binding result [10]: no binding (tested: 1000 nM)

B7: Anti-SIRPα antibody KWAR23 (antibody, V domains shown)
VH: EVQLQQSGAELVKPGASVKLSCTASGFNIKDYYIHWVQQRTEQGLEWIGRIDPEDGETKYAPKFQDKATITADTSSNTAYLHLSSLTSEDTAVYYCARWGAYWGQGTLVTVSS
VL: QIVLTQSPAIMSASPGEKVTLTCSASSSVSSSYLYWYQQKPGSSPKLWIYSTSNLASGVPARFSGSGSGTSYSLTISSMEAEDAASYFCHQWSSYPRTFGAGTKLELK
EC50 [1]: 0.2 nM | EC50 [2]: 0.4 nM
